Measured values taken from PMC7541222, “Novel single-domain antibodies against the EGFR domain III epitope exhibit the anti-tumor effect” (Journal of Translational Medicine, 2020).

Tests used:
[1] = target: T1, EGFR on human cancer cells A549, MCF-7 and DU145 (Homo sapiens, UniProt P00533); test: flow cytometry on cells; live cells (A549, MCF-7, DU145) in ice-cold PBS with BSA incubated with purified sdAbs; detected with protein A-FITC; settings: one partner purified
T1 construct: Epidermal growth factor receptor (EGFR, HER1, ERBB1), endogenous on the surface of human cancer cell lines; also called HER1; ERBB1; source: endogenous, on live A549, MCF-7 and DU145 cells

EndoF1 [2] = target: T2, EndoF1 (Elizabethkingia meningoseptica (assumed), UniProt P36911); test: ELISA; wells of 96-well plates coated with EGFR protein fragment or unrelated antigens; purified sdAbs added; protein A-HRP, TMB, absorbance at 450 nm; settings: both partners purified
T2 construct: EndoF1, unrelated antigen used as negative control

BMP2 [3] = target: T3, BMP2 (Homo sapiens (assumed), UniProt P12643); test: as above; settings: both partners purified
T3 construct: BMP2, unrelated antigen used as negative control

FGF21 [4] = target: T4, FGF21 (Homo sapiens (assumed), UniProt Q9NSA1); test: as above; settings: both partners purified
T4 construct: FGF21, unrelated antigen used as negative control

[5] = target: T5, EGFR complete extracellular domain protein (Homo sapiens (assumed), UniProt P00533); test: far-Western, overlay or dot blot; Western blotting: 0.5 ug EGFR complete extracellular domain separated by SDS-PAGE, transferred to PVDF; blot incubated with the sdAbs, then protein A-HRP, chemiluminescence; settings: both partners purified
T5 construct: Epidermal growth factor receptor (EGFR, HER1, ERBB1), complete extracellular domain, bought; also called EGFR complete extracellular fragment; EGFR-ECD; source: bought: Shanghai Bootech BioSci. and Technol

EndoF1 [6] = target: T2, EndoF1; test: ELISA; monoclonal phage ELISA: wells of 96-well plates coated with EGFR protein fragment or unrelated antigens, blocked with 2% BSA; phage clones added; anti-M13-HRP, TMB, absorbance at 450 nm; settings: one partner purified
BMP2 [7] = target: T3, BMP2; test: as above; settings: one partner purified
FGF21 [8] = target: T4, FGF21; test: as above; settings: one partner purified

T2 sequence (P36911 51-339): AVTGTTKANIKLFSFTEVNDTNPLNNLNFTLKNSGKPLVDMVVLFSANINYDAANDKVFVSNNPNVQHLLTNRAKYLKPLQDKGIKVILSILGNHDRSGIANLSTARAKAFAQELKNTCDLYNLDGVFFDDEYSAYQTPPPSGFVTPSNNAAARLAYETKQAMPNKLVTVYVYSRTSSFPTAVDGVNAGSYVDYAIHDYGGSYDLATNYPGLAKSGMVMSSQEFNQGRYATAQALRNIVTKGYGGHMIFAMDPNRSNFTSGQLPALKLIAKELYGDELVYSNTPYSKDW
T4 sequence (Q9NSA1 29-209): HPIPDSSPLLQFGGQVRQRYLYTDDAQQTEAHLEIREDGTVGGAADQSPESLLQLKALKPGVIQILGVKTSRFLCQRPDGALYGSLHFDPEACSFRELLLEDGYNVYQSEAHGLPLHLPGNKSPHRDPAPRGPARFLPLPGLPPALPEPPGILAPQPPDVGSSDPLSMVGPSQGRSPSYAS
T3 sequence (P12643 24-396): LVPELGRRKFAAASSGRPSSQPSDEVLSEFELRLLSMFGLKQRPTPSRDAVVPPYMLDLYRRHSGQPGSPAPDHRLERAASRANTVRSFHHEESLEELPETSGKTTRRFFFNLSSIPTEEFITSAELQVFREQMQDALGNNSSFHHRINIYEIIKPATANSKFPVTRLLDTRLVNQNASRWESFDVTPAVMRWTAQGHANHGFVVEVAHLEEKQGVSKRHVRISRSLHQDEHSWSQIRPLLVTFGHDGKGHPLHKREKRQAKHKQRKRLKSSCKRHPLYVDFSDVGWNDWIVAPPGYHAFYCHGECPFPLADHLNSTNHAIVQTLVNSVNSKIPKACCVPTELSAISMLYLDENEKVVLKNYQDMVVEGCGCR

Binder	binding result [1]	binding result (EndoF1 [2])	binding result (BMP2 [3])	binding result (FGF21 [4])	binding result [5]	binding result (EndoF1 [6])	binding result (BMP2 [7])	binding result (FGF21 [8])
anti-EGFR single-domain antibody aEG6B2 (purified) (VHH, fully human VH domain on the V3-23/D47 framework with diversified CDR1-3; Fully human VH-only single-domain antibody (about 15 kDa), selected from the Source BioScience human domain antibody library; subcloned NcoI/NotI into pET22b(+); also called anti-EGFR sdAb; source: E. coli BL21 (DE3), pET22b(+), purified (Ni-NTA)) VHH: QVQLLESGGGLVQPGGSLRLSCAASGFNVNPKYMTWVRQAPGKGLEWVSSIRSPGGSTYYADSVKGRFTISRDNSKNTLYLQMNSLRAEDTAVYYCASVSRDEKYMRFWGQGTLVTVSS	binds	no binding	no binding	no binding	binds			
aEG6B2 displayed on phage (phage clone) (VHH, detected by anti-M13-HRP; source: E. coli TG1, phagemid pR2, rescued with M13 helper phage, phage clone) VHH: QVQLLESGGGLVQPGGSLRLSCAASGFNVNPKYMTWVRQAPGKGLEWVSSIRSPGGSTYYADSVKGRFTISRDNSKNTLYLQMNSLRAEDTAVYYCASVSRDEKYMRFWGQGTLVTVSS						no binding	no binding	no binding
anti-EGFR single-domain antibody aEG2E12 (purified) (VHH, fully human VH domain on the V3-23/D47 framework with diversified CDR1-3; Fully human VH-only single-domain antibody (about 15 kDa), selected from the Source BioScience human domain antibody library; subcloned NcoI/NotI into pET22b(+); also called anti-EGFR sdAb; source: E. coli BL21 (DE3), pET22b(+), purified (Ni-NTA)) VHH: QVQLLESGGGLVQPGGSLRLSCAASGYSSNNEFMAWVRQAPGKGLEWVSAISTRNGSTYYADSVKGRFTISRDNSKNTLYLQMNSLRAEDTAVYYCAGVSYRRPQQLKYWGQGTLVTVSS	binds	no binding	no binding	no binding	binds			
aEG2E12 displayed on phage (phage clone) (VHH, detected by anti-M13-HRP; source: E. coli TG1, phagemid pR2, rescued with M13 helper phage, phage clone) VHH: QVQLLESGGGLVQPGGSLRLSCAASGYSSNNEFMAWVRQAPGKGLEWVSAISTRNGSTYYADSVKGRFTISRDNSKNTLYLQMNSLRAEDTAVYYCAGVSYRRPQQLKYWGQGTLVTVSS						no binding	no binding	no binding
anti-EGFR single-domain antibody aEG2C7 (purified) (VHH, fully human VH domain on the V3-23/D47 framework with diversified CDR1-3; Fully human VH-only single-domain antibody (about 15 kDa), selected from the Source BioScience human domain antibody library; subcloned NcoI/NotI into pET22b(+); also called anti-EGFR sdAb; source: E. coli BL21 (DE3), pET22b(+), purified (Ni-NTA)) VHH: QVQLLESGGGLVQPGGSLRLSCAASGFTFNNEIMAWVRQAPGKGLEWVSSIAANNGSTYYADSVKGRFTISRDNSKNTLYLQMNSLRAEDTAVYYCARYAAEPHTYSMGNKSLRYWGQGTLVTVSS	binds	no binding	no binding	no binding	binds			
aEG2C7 displayed on phage (phage clone) (VHH, detected by anti-M13-HRP; source: E. coli TG1, phagemid pR2, rescued with M13 helper phage, phage clone) VHH: QVQLLESGGGLVQPGGSLRLSCAASGFTFNNEIMAWVRQAPGKGLEWVSSIAANNGSTYYADSVKGRFTISRDNSKNTLYLQMNSLRAEDTAVYYCARYAAEPHTYSMGNKSLRYWGQGTLVTVSS						no binding	no binding	no binding
anti-EGFR single-domain antibody aEG4D9 (purified) (VHH, fully human VH domain on the V3-23/D47 framework with diversified CDR1-3; Fully human VH-only single-domain antibody (about 15 kDa), selected from the Source BioScience human domain antibody library; subcloned NcoI/NotI into pET22b(+); also called anti-EGFR sdAb; source: E. coli BL21 (DE3), pET22b(+), purified (Ni-NTA)) VHH: QVQLLESGGGLVQPGGSLRLSCAASGDMLSPDNMTWVRQAPGKGLEWVSTIHKTDGSTYYADSVKGRFTISRDNSKNTLYLQMNSLRAEDTAVYYCAGLRSRGLSSKYLEYWGQGTLVTVSS	binds	no binding	no binding	no binding	binds			
aEG4D9 displayed on phage (phage clone) (VHH, detected by anti-M13-HRP; source: E. coli TG1, phagemid pR2, rescued with M13 helper phage, phage clone) VHH: QVQLLESGGGLVQPGGSLRLSCAASGDMLSPDNMTWVRQAPGKGLEWVSTIHKTDGSTYYADSVKGRFTISRDNSKNTLYLQMNSLRAEDTAVYYCAGLRSRGLSSKYLEYWGQGTLVTVSS						no binding	no binding	no binding
anti-EGFR single-domain antibody aEG1B4 (purified) (VHH, fully human VH domain on the V3-23/D47 framework with diversified CDR1-3; Fully human VH-only single-domain antibody (about 15 kDa), selected from the Source BioScience human domain antibody library; subcloned NcoI/NotI into pET22b(+); also called anti-EGFR sdAb; source: E. coli BL21 (DE3), pET22b(+), purified (Ni-NTA)) VHH: QVQLLESGGGLVQPGGSLRLSCAASGVNVSNEVMSWVRQAPGKGLEWVSTIANHSGSTYYADSVKGRFTISRDNSKNTLYLQMNSLRAEDTAVYYCATLYSGATKQLEYWGQGTLVTVSS	binds	no binding	no binding	no binding	binds			
aEG1B4 displayed on phage (phage clone) (VHH, detected by anti-M13-HRP; source: E. coli TG1, phagemid pR2, rescued with M13 helper phage, phage clone) VHH: QVQLLESGGGLVQPGGSLRLSCAASGVNVSNEVMSWVRQAPGKGLEWVSTIANHSGSTYYADSVKGRFTISRDNSKNTLYLQMNSLRAEDTAVYYCATLYSGATKQLEYWGQGTLVTVSS						no binding	no binding	no binding
